Results: patent publication US20240369485A1, “FLUORESCENT SENSOR FOR MONITORING CALCIUM DYNAMICS” (priority 2021, published 2024)
One block for each molecule: values may come before it.

Legend:
CaSR E297K = biological target: T1, CaSR E297K (Homo sapiens, UniProt P41180, E297K); assay: Epifluorescence imaging of CaSR mediated ER Ca^2+ dynamics using R-CatchER, E297K mutant; format: cell-based; conditions: E297K mutant with TNCA (500 μM)
T1 construct: expressed in transfected cells; host or cells: HEK293
T1 sequence (P41180 20-1078 E297K): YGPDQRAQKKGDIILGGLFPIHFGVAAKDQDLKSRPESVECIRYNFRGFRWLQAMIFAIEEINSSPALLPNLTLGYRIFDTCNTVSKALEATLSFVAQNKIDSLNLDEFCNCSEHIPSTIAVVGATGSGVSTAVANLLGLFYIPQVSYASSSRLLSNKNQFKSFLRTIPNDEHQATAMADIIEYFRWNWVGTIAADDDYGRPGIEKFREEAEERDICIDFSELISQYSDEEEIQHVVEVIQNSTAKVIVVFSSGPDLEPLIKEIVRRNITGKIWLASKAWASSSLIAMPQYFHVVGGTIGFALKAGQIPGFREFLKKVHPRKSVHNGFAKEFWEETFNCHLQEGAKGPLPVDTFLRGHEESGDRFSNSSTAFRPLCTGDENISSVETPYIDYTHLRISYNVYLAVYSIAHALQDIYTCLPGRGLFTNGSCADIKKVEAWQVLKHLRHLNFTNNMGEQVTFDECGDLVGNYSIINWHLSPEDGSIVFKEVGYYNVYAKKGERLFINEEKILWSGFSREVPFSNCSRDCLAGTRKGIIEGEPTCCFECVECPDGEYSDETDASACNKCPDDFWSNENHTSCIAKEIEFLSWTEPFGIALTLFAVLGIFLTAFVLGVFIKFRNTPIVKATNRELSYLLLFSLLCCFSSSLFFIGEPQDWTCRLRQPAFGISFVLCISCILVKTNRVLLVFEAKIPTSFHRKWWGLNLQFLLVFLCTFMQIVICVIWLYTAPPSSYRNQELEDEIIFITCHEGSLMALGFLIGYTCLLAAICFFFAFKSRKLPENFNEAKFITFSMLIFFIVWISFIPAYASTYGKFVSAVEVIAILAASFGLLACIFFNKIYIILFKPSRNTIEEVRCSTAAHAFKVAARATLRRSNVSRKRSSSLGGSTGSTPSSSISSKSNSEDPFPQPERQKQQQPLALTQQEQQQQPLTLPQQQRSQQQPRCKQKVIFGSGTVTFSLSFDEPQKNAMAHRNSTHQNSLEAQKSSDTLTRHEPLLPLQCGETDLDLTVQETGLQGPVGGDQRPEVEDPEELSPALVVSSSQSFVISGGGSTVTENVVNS
Method: (§1) Cell culture and transfection. C2C12, HEK293 and HeLa cells were cultured and maintained in Dulbecco's modified Eagle's medium (DMEM) supplemented with 10% fetal bovine serum (FBS) and high glucose (4.5 g/L) at 37° C. R-CatchER, G-CatchER2, G-CEPIA1er, R-CEPIA1er or R-CatchER with GFP-CaSR (wt and mutations) were transfected into cells using Lipofectamine 3000 (Life Technologies), following the manufacturer's instructions. Seed cells onto sterilized 22 mm×40 mm glass microscope slides in 6 cm dishes until about 70% confluency, the day of transfection. The next day, 2 μg of plasmid were mixed with transfection reagent in the reduced serum media Opti-MEM for 4-6 h at 37° C. The media was then replaced with 3 mL of fresh DMEM and incubated at 37° C. for 48 h.
Epifluorescence imaging of class C GPCR mediated ER Ca^2+ dynamics using R-CatchER and Fura-2. HEK293 Cells transfected with R-CatchER and GFP-CaSR (wt and mutations) were incubated with Fura-2 for 30 mins at 37° C. then washed with 2 mL of physiological Ringer buffer (10 mM HEPES, 140 mM NaCl, 5 mM KCl, 1.2 mM MgCl2, 1.8 mM CaCl2) at pH 7.4). The coverslips were mounted on a bath chamber and placed on the stage of a Leica DM6100B inverted microscope with a Hamamatsu cooled EM-CCD camera and illuminated with a Till Polychrome V Xenon lamp. […]

CaSR (wildtype) = biological target: T2, CaSR (wildtype) (Homo sapiens, UniProt P41180); assay: Epifluorescence imaging of CaSR mediated ER Ca^2+ dynamics using R-CatchER and Fura-2 in HEK293 cells; format: cell-based; conditions: in the presence of Ca^2+, HEK293 CaSR, R-CatchER
T2 construct: expressed in transfected cells; host or cells: HEK293
T2 sequence (P41180 20-1078): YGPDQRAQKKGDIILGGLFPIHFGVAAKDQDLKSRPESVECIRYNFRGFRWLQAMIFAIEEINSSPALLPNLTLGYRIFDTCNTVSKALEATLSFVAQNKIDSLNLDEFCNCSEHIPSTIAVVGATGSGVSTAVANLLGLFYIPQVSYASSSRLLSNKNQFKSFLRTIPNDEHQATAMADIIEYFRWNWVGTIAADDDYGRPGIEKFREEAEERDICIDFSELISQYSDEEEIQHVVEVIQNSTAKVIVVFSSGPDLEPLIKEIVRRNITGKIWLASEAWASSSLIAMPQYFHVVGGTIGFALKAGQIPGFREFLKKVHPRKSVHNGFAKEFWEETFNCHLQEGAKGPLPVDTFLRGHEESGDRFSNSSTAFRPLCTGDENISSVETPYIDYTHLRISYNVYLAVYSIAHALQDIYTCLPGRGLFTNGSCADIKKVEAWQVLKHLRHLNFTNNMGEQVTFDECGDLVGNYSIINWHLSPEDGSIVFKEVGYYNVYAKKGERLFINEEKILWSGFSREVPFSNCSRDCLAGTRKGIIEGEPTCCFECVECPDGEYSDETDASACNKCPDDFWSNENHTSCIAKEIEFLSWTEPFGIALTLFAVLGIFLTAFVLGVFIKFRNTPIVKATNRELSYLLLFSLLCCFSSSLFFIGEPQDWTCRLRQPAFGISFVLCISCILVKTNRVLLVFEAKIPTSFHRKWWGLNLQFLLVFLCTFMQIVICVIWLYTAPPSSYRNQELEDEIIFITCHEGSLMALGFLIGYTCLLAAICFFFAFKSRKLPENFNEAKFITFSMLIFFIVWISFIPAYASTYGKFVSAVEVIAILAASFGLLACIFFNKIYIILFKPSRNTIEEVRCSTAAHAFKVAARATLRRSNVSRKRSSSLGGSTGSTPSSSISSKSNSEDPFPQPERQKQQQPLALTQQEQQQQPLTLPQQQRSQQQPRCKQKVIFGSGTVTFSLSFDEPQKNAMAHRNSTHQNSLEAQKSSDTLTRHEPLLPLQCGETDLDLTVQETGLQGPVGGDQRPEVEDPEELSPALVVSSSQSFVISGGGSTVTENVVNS
Method: as §1
Epifluorescence imaging of class C GPCR mediated ER Ca^2+ dynamics using R-CatchER and Fura-2. HEK293 Cells transfected with R-CatchER and GFP-CaSR (wt and mutations) were incubated with Fura-2 for 30 mins at 37° C. then washed with 2 mL of physiological Ringer buffer (10 mM HEPES, 140 mM NaCl, 5 mM KCl, 1.2 mM MgCl2, 1.8 mM CaCl2) at pH 7.4). The coverslips were mounted on a bath chamber and placed on the stage of a Leica DM6100B inverted microscope with a Hamamatsu cooled EM-CCD camera and illuminated with a Till Polychrome V Xenon lamp. Cells were illuminated at 340 nm, 380 nm and 569 nm, in real-time, as cells were exposed to different concentrations of Ca^2+, cinacalcet, Phe, TNCA, or NPS2143.

[1] = In vitro kinetics by stopped flow spectrofluorometer; format: binding; conditions: stopped-flow, dead time 2.2 ms, 20° C.
Method: In vitro kinetics by stopped flow spectrofluorometer. The kinetics were determined by a Hi-Tech SF-61 stopped-flow spectrofluorometer equipped with the mercury-Xe lamp (10 mm path length, dead time of 2.2 ms) at 20° C. For R-CatchER and its variant or R-CEPIA1er, excitation was at 569 nm and a long-pass 590 nm filter was used. For G-CEPIA1er, a 530 nm long-pass filter was set with excitation at 498 nm, while for MCD1, excitation at 587 nm and a long-pass 600 nm filter were applied. For association kinetics, R-CatchER, R-CatchER variant, MCD1, R-CEPIA1er, and G-CEPIA1er were mixed with the same buffer containing an increasing concentration of Ca^2+. For disassociation kinetics, R-CatchER, R-CatchER variant, MCD1, R-CEPIA1er, and G-CEPIA1er in buffers with concentration of Ca^2+ at Kd, were mixed with 5 mM EGTA or buffer. The raw data were fitted using either single exponential for R-CatchER, R-CatchER variant, and MCD1, or double exponential equations for R-CEPIA1er and G-CEPIA1er.

[2] = Calcium (Ca^2+) binding assay: fluorescence/absorbance titration of purified protein
Method: Calcium (Ca^2+) binding assay. 10 μM protein samples of mApple, EGFP, and mCherry variants were titrated with different concentrations of Ca^2+. Data were fitted with a 1:1 binding equation. Fluorescence intensities were collected using a Spectrofluorimeter (Photon Technology International, Inc.) and the absorbance values of Ca^2+-free and Ca^2+-loaded forms were determined using a Shimadzu UV-1601 spectrophotome.
Ca^2+ binding assay. Fluorescence measurements of mApple variants with increasing Ca^2+ concentrations were done in order to obtain the affinity of the sensor for Ca^2+ in vitro. Samples of 10 μM mApple variants with 5 μM EGTA were prepared in triplicate in 1 mL volumes in 10 mM Tris, pH 7.4. The samples were placed in quartz fluorescence cuvettes, and metal ion was titrated into each sample, in a stepwise manner, using 0.1 M and 1 M metal stock solutions. The fluorescence response of the indicator to increasing Ca^2+ concentrations was monitored using a fluorescence spectrophotometer (Photon Technology International, Canada) with the Felix32 fluorescence analysis software. The absorbance spectra before and after titration were obtained using a Shimadzu UV-1601 spectrophotometer.

[3] = pKa determination of the chromophore; format: physicochemical
Method: pKa determination. To measure the chromophore pKa of mApple, EGFP, and mCherry variants, the proteins were prepared in buffers (sodium acetate buffer for pH 3-5, MES buffer for pH 5-6, HEPES buffer for pH 6.5-8, TRIS buffer for pH 8.5-9) covering a pH range from 3 to 10. All samples were Incubated at 4° C. overnight, then the following day, the absorbance and fluorescence spectra were collected using a Shimadzu UV-1601 spectrophotometer and the Spectrofluorimeter.

HeLa cells = assay: Epifluorescence imaging of mitochondria Ca^2+ dynamics; format: cell-based; conditions: 100 μM histamine
Method: as §1, with “transfection.” for “transfection. C2C12, HEK293 and”, “DMEM” for “Dulbecco's modified Eagle's medium (DMEM)”, “FBS” for “fetal bovine serum (FBS)”, “Individual plasmids” for “R-CatchER, G-CatchER2, G-CEPIA1er, R-CEPIA1er or R-CatchER with GFP-CaSR (wt and mutations)”
Epifluorescence imaging of mitochondria Ca^2+ dynamics. The coverslips with HeLa Cells transfected with mitochondria indicators were mounted on a bath chamber and placed on the stage of a Leica DM6100B inverted microscope with a Hamamatsu cooled EM-CCD camera and illuminated with a Till Polychrome V Xenon lamp. Cells were illuminated at 569 nm, in real-time. Fluorescence images of samples were recorded as the concentration of ER Ca^2+ was perturbed by perfusion of 100 μM histamine.

Hill coefficient (cooperativity) (CaSR E297K): 3.08±0.40 | effect on frequency of ER Ca^2+ oscillations (CaSR (wildtype)): increased the frequency
Molecule: O=C(O)[C@@H]1Cc2c([nH]c3ccccc23)CN1 [TNCA, L-1,2,3,4-tetrahydronorharman-3-carboxylic acid]

Fmax/Fmin ([2]; mCherry based indicators, Ca^2+ induced fluorescence change): 1.13 ± 0.01
B1: MCD1: mCherry A145E/S147E/N196D/K198D/R216E, best mCherry-based variant, SEQ ID NO: 32 (protein)
chain: EEDNMAIIKEFMRFKVHMEGSVNGHEFEIEGEGEGRPYEGTQTAKLKVTKGGPLPFAWDILSPQFMYGSKAYVKHPADIPDYLKLSFPEGFKWERVMNFEDGGVVTVTQDSSLQDGEFIYKVKLRGTNFPSDGPVMQKKTMGWEESEERMYPEDGALKGEIKQRLKLKDGGHYDAEVKTTYKAKKPVQLPGAYNVDIDLDITSHNEDYTIVEQYEEAEGRHSTGGMDELYK
Ca^2+ association rate kon [1]: ≥ 3e+07 M⁻¹ s⁻¹ | apparent pKa ([3]; 0 mM Ca^2+): 4.31±0.01 | apparent pKa ([3]; 10 mM Ca^2+): 4.30±0.01

Fmax/Fmin ([2]; EGFP and mApple variants): 3.80 | Aholo/Aapo ([2]; absorbance at 569): 1.60 (569) | Kd ([2]; in vitro, purified protein, read-out: Kd for Ca^2+ binding): 290 ± 20 µM
B2: mApple A145E/K198D/R216E: mApple variant, SEQ ID NO: 25; starting point of mitochondria indicator (protein)
chain: EENNMAIIKEFMRFKVHMEGSVNGHEFEIEGEGEGRPYEAFQTAKLKVTKGGPLPFAWDILSPQFMYGSKVYIKHPADIPDYFKLSFPEGFRWERVMNFEDGGIIHVNQDSSLQDGVFIYKVKLRGTNFPSDGPVMQKKTMGWEESEERMYPEDGALKSEIKKRLKLKDGGHYAAEVKTTYKAKKPVQLPGAYIVDIDLDIVSHNEDYTIVEQYEEAEGRHSTGGMDELYK
fluorescence intensity change of mitochondria targeted indicator (HeLa cells): no fluorescence change was observed
